Laboratory results as given in publication PMC11564776, “Enzyme stabilisation due to incorporation of a fluorinated non-natural amino acid at the protein surface” (Scientific Reports, 2024).

Target: the molecule itself
Experiment: SEC; Zorbax-GF250 column, 1 mL/min, 200 mM sodium phosphate pH 7.0, column at room temperature; holo-TK samples stored at 4 °C or heated 15 min at 21 °C or 50 °C; homodimer and monomer peaks combined as 'native' because dilution during SEC can cause partial dissociation to monomer

B1: wild-type E. coli transketolase (enzyme)
chain: SSRKELANAIRALSMDAVQKAKSGHPGAPMGMADIAEVLWRDFLKHNPQNPSWADRDRFVLSNGHGSMLIYSLLHLTGYDLPMEELKNFRQLHSKTPGHPEVGYTAGVETTTGPLGQGIANAVGMAIAEKTLAAQFNRPGHDIVDHYTYAFMGDGCMMEGISHEVCSLAGTLKLGKLIAFYDDNGISIDGHVEGWFTDDTAMRFEAYGWHVIRDIDGHDAASIKRAVEEARAVTDKPSLLMCKTIIGFGSPNKAGTHDSHGAPLGDAEIALTREQLGWKYAPFEIPSEIYAQWDAKEAGQAKESAWNEKFAAYAKAYPQEAAEFTRRMKGEMPSDFDAKAKEFIAKLQANPAKIASRKASQNAIEAFGPLLPEFLGGSADLAPSNLTLWSGSKAINEDAAGNYIHYGVREFGMTAIANGISLHGGFLPYTSTFLMFVEYARNAVRMAALMKQRQVMVYTHDSIGLGEDGPTHQPVEQVASLRVTPNMSTWRPCDQVESAVAWKYGVERQDGPTALILSRQNLAQQERTEEQLANIARGGYVLKDCAGQPELIFIATGSEVELAVAAYEKLTAEGVKARVVSMPSTDAFDKQDAAYRESVLPKAVTARVAVEAGIADYWYKYVGLNGAIVGMTTFGESAPAELLFEEFGFTVDNVVAKAKELL
notes: transketolase (TK) of E. coli, wild-type gene in plasmid pQR791; the introduction gives the domains as residues 1-322 (PP), 323-539 (Pyr) and 540-663 (C-terminal); Used as holo-TK with ThDP and MgCl2; also called WT TK; WT-TK; source: E. coli XL-10-Gold with plasmid pQR791, purified (Ni-NTA)
B1: binds.
